# Measured values: the nanobody polyreactivity screen of Harvey et al. (2022)
# Experiment: yeast display, Sf9 membrane polyspecificity reagent, FACS + sequencing; frameworks hold sequencing errors
# Method in brief: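 A synthetic nanobody library was expressed on Saccharomyces cerevisiae BJ5465 by galactose induction for 36–48 hours. The library was stained for 1 hour at 4 °C with 10% biotinylated, detergent-solubilized Sf9 membrane reagent and enriched with streptavidin microbeads before FACS. Low and high (top ~1%) gates were set on anti-HA fluorescence for expression and streptavidin fluorescence for reagent binding, and each polyreactivity label reflects the gate of origin.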
row,Sequence,polyreactivity (PSR sort gate)
1,QVQLVESGGGLVQAGGSLRLSCAASVSIMARNAMVWYRQAPGKERELVAAISNSGSTNYADSVKGRFTISRDNAKNTVYLQMNSLKPEDTAVYYCAKDADHGWFEYDYWGQGTQVTVSS,low polyreactivity
2,QVQLVESGGGLVQAGGSLRLSCAASVSNIKYNAMGWYRQAPGKERELVAAISSSGGTTYYADSVKGRFTISRDNAKNTVYLQMNSLKPEDTAVYYCNKYFRAGNGYGEEDYWGQGTQVTVSS,high polyreactivity
3,QVQLVESGGGLVQAGGSLRLSCAASVSTFDDNAMGWYIQAPGKERELVASITYRGGSTYYADSVKGRFTISRDNAKNTVYLQMNSLKPEDTAVYYCNADYTGAEYDYWGQGTQVTVSS,low polyreactivity
4,QVQLVESGGGLVQAGGSLRLSCAASVSTFKPYAMGWYRQAPGKERELVSAISGSGGSTYYADSVKGRFTISRDNAKNTVYLQMNSLKPEDTAVYYCAARFYVSYYYFGYEYWGQGTQVTVSS,high polyreactivity
5,QVQLVESGGGLVQAGGSLRLSCAASVSTFPGYAMGWYRQAPGKERELVAAISTSGGRTYYADSVKGRFTISRDNAKNTVYLQMNSLKPEDTAVYYCAARDTRSPYSGTQVEYWGQGTQVTVSS,low polyreactivity
6,QVQLVESGGGLVQAGGSLRLSCAASVSTFYSYVMGWSRQAPGKETELVAAITYSGGRTYYADSVKGRFTISRDNAKNTVYLQMNSLKPEDTAVYYCAKRVFNYQRYDYWGQGTQVTVSS,high polyreactivity
7,QVQLVESGGGLVQAGGSLRLSCAASVYIFQSNVMGWYRQAPGKESELLAAITVSGGSTYYADSVKGRFTISRDNGKNTVYLQMKSLKPEDTAVYYCNKVGVKFRVDGWYDYWGQATQVTVSS,high polyreactivity
8,QVQLVESGGGLVQAGGSLRLSCAATGFIFDSYAMGWYRQAPGKERELVAAISWSGGRTYYADSVKGRFTISRDNAKNTVYLQMNSLKPEDTAVYYCNVRTKLSTSYDYWGQGTQVTVSS,high polyreactivity
9,QVQLVESGGGLVQAGGSLRLSCAATGFIFPINAMGWYRQAPGKERELVAAITGGGSTSYADSVKGRFTISRDNAKNTVYLQMNSLKPEDTAVYYCATDRLTYTKYGYWGQGTQVTVSS,low polyreactivity
10,QVQLVESGGGLVQAGGSLRLSCAATGFIFSYYAMGWYRQAPGKERELVATITSGGSTYYADSVKGRFTISRDNAKNTVYLQMNSLKPEDTAVYYCNADWYWRVYWGQGTQVTVSS,high polyreactivity
11,QVQLVESGGGLVQAGGSLRLSCAATGFIFYEYPMGWYRQAPGKERELVASINSDGRTDYADSVKGRFTISRDNAKNTVYLQMNSLKPEDTAVYYCAAALGYYGRHPYDYWGQGTQVTVSS,low polyreactivity
12,QVQLVESGGGLVQAGGSLRLSCAATGFTFYTYAMGWYRQATGKETELVADISSGGSTNYADSVKGRFRISRDNAKNTVYLQMNSLIPEDTAVYYCSDDYYFLDWYDYWGQGTQVTVSS,low polyreactivity
13,QVQLVESGGGLVQAGGSLRLSCAATGGTFNVYAMGWYRQAPGKESELVAAIRWSGGSTYYADSVKGRFTISRDNAKNTVYLQMNSLKPEDTAVYYCAARFYGRSQTYGSWGLGTQVTVSS,high polyreactivity
14,QVQLVESGGGLVQAGGSLRLSCAATGGTFYVYAMGWYRQAPGKERELVARITWRGGRTYYADSVKGRFTISRDNAKNTVYLQMYSLKPEDTAVYYCNAEQYSQFDYWGQGTQVTVSS,high polyreactivity
15,QVQLVESGGGLVQAGGSLRLSCAATGIIFDSYTMGWYRQAPGKERELVAAISVSGGSTYYADSVKVRFTISRDNAKNTVYLQMNSLKPEDTAVYYCAARGYAFNYMWPFNYWGQGTQVTVSS,low polyreactivity
16,QVQLVESGGGLVQAGGSLRLSCAATGIIFKRYTMGWYRQAPGKERELVATINSGTRTYADSVKGRFTISRDNAKNTVYLQMNSLKPEDTAVYYCARRGYYYDYWGLGTQVTVSS,high polyreactivity
17,QVQLVESGGGLVQAGGSLRLSCAATGITFEYNAMGWYRQAPGKERELVAAISLSSGSTYYADSVKGRFTISRDNAKNTVYLQMNSLKPEDTAVYYCNADTIIYEGGYWGQGTQVTVSS,low polyreactivity
18,QVQLVESGGGLVQAGGSLRLSCAATGLIFRSYAMGWYRQAPGKDRELVARISIRGGSTYYADSVKGRFTISRDNAKNTGSLQMNSLKPEDTAVYYCAAVGSFRGYRYDYWGQGTQVTVSS,high polyreactivity
19,QVQLVESGGGLVQAGGSLRLSCAATGLIFSLYAMGWYRQAPGKERELVAAISASDGSTYYADSVKGRFTISRDNAKNTVYLQMNSLKPEDTAVYYCAADSRPTQEYDYWGQGTQVTVSS,low polyreactivity
20,QVQLVESGGGLVQAGGSLRLSCAATGLIIRYYAMGWYRQAPGKEREFVAAITWNGGSTYADSVKGRFTISRDNAKNTVYLQMNSLKPEDTAVYYSAADLSYWDDFDYWGQGTQVTVSS,low polyreactivity
21,QVQLVESGGGLVQAGGSLRLSCAATGLIIYRNAMGWYRQAPGKEREFVAAISYSGGSTSYADSVKGRLTISRDNAKNTVYLQMNSLKPEDTAVYYCAVDQSRGWFYLYYYWGQGTQVTVSS,low polyreactivity
22,QVQLVESGGGLVQAGGSLRLSCAATGMIYERNAMGWYRQAPGKERELVAAITRSGSRTYYADSVKGRFTISRDNAKNTVYLQMNSLKPEDTAVYYCAKRSGYRAHYGYWGQGTQVTVSS,high polyreactivity

row,Sequence,polyreactivity (PSR sort gate)
1,QVQLVESGGGLVQAGGSLRLSCAATGNIFTPYTMGWYRQAPGKERELVASINNAGTTKYADSVKGRFTISRDNAKTTVYLQMNSLKPEDTAVYYCAAQRRHALSSYPKHYYWGQGTQVTVSS,low polyreactivity
2,QVQLVESGGGLVQAGGSLRLSCAATGRIFHRYAMGWYRQAPGKEREFVAAITYSTGTTYYADSVKGRFTISRDNAKNTVYLQMNSLKPEDTAVYYCAKVSRFWHKSWFAYGYDYWGQGTQVTVSS,low polyreactivity
3,QVQLVESGGGLVQAGGSLRLSCAATGRIFHSNAMGWYRQAPGKERELVAVITKNGGSTYYADSVKGRFTISRDNAKNTVYLQMNSLKPEDTAVYYCNKRAQYTYYGRDYWGQGTQVTVSS,high polyreactivity
4,QVQLVESGGGLVQAGGSLRLSCAATGRIFNPNAMGWYRQAPGKERELVAAITSGDSTNYADSVKGRFTISRDNAKNTVYLQMNSLKPEDTAVYYCAAGPSYRPPWLRQGGYDYWGQGTQVTVSS,low polyreactivity
5,QVQLVESGGGLVQAGGSLRLSCAATGRIFTYMGWYRQAPGKERELVAGISWRGTSTYYADSVKGRFTISRDNAKNTVYLQMNSLKPEDTAVYYCAARWAYHVRGDYWGQGTQVTVSS,low polyreactivity
6,QVQLVESGGGLVQAGGSLRLSCAATGRIVRGNAMGWYRQAPGKERELVAAISTRGGRTYYADSVKGRFTISRDNAKNTVYLQMTSLKPQDTAVYYCNKGDSASSLDYWGQGTQVTVSS,high polyreactivity
7,QVQLVESGGGLVQAGGSLRLSCAATGRNFRYNAIGWYRQATGKERELVATISRGGGSTYYADSVKGRFTISRDNAQNTVYLQMNSLKPEDTAVYYCATRYYQDIVGYSRYDYWGQGTQVTVSS,high polyreactivity
8,QVQLVESGGGLVQAGGSLRLSCAATGRTFAVYAMGWYRQAPGKERELVAAISSGGSTYYADSVKGRFTIARDNAKNTVYLQMNSLKPEDTAVYYCTARWGYRRGYWGQGTQVTVSS,high polyreactivity
9,QVQLVESGGGLVQAGGSLRLSCAATGRTFGVNAMAWYRQAPGKESELVASIRWNGGSTYYADSVKGRFTISRDNAKNTVYLQMNSLKPEDTAVYYCNAVRRYRSREFDYWGQGSQVTVSS,low polyreactivity
10,QVQLVESGGGLVQAGGSLRLSCAATGRTFINYAMGWYRQAPGKERALVAAITTGGRTNYADSVKGRFTISRDNAKNTVYLQMNSLKPEDTAVFYCAADRYYWGRYTLNYWGQGTQVTVSS,low polyreactivity
11,QVQLVESGGGLVQAGGSLRLSCAATGRTFSTNAMGGSRQAPGKERELVAAITSSGGRTYYADSVKGRFTISRDNAKNTVYLQMNSLKPEDTAVYYCAAYPWYYRGYWFGYWGQGTQVTVSS,high polyreactivity
12,QVQLVESGGGLVQAGGSLRLSCAATGRTLKYNAMGRYRKAPGKERELVAAISYSGSSTYYADSVKGRFTISRDNAKNTVYLQMHSLKPEDTAVYYCNTARPTAAYDYWGQGTQVTVSS,low polyreactivity
13,QVQLVESGGGLVQAGGSLRLSCAATGSIFAVYAMGWYRQAPGKERELVARITRGGGSTYYADSVKGRFTISRDNAKNTVYLQMNSLKPEDTAVYYCAAARWSQYRTWMNYWGQGTQVTVSS,high polyreactivity
14,QVQLVESGGGLVQAGGSLRLSCAATGSIFEGYAMGWYRQAPGKERELVARITSDDDSTYYADSVKGRFTISRDNAKNSVYLQMNSLKPEDTAVYYCNADYYWTSLAMDSWGQGTQVTVSS,low polyreactivity
15,QVQLVESGGGLVQAGGSLRLSCAATGSIFNIYTMGRYRQAPGKERELVAVITSSGGKYYADSLKGRFTISRDNAMNTVYLQMNSLKPEDTAVYFCAARRRPYSPHLGYWGQGTQVTVSS,high polyreactivity
16,QVQLVESGGGLVQAGGSLRLSCAATGSIFPANVMGWYRQAPGKERELVASINSGDDTNYADSVKGRFTISRDNAKNTVYLQMNSLKPEDTAVYYCATGDWYPYGDYIYDYWGQGTQVTVSS,low polyreactivity
17,QVQLVESGGGLVQAGGSLRLSCAATGSIFVPNTMGWYRQAPGKERELVADINSDTGRTYYADSVKGRFTISRDNAKNTVYLQMNSLKPEDTAVYYCAAEWYSFWSSVEYDYWGQGTQVTVSS,low polyreactivity
18,QVQLVESGGGLVQAGGSLRLSCAATGSNFTGNAMVWYRQAPGKERELVAAISRSGGSTYYADSVKGRYTISRDNAKNTVYLQMISLKPEDTAVYYCAAYRTHGPPRAIRFDYWGQGTQVTVSS,high polyreactivity
19,QVQLVESGGGLVQAGGSLRLSCAATGSTFGPYVMGWYRQAPGKERELVAVISGGSTDYADSVKGRFTISRDNAKNTVYLQMNTLKPEDTAVYYCNAVLYVQDRLTRVDYDYWGQGTQVTVSS,high polyreactivity
20,QVQLVESGGGLVQAGGSLRLSCAATGSTFVYYALGWYRPAPGKERELVAAITASGGGTYYADSVKGRFTISRDNAKNTVYLQMNSLKPEDTAVYYCNRGYDYWGQGTQVTGSS,low polyreactivity
21,QVQLVESGGGLVQAGGSLRLSCAATGSTFYRNAMGWYRQAPGKEREFVAAISFRGGGTYADSVKGRFTISRDNAKNTVFLQMNSLKPEDTAVYYCADDHLSYRRRYEYWGQGTQVTVSS,low polyreactivity
